Source: patent publication US20220380763A1, “NUCLEIC ACID DELIVERY ENHANCER” (NATIONAL UNIVERSITY CORPORATION KOCHI UNIVERSITY, priority 2019, published 2022)
Like-named read-outs stand apart in the source and are kept apart here. Numbered stars: 1 amine (or outer) side, 2 acyl side, 3 side chain; on linkers, the order of the positions; unused ones are H or OH. Square brackets hold non-standard residues; d marks the D form. Peptide text beside a SMILES is read from it. * marks the point of attachment. Pteroyl = Nc1nc2ncc(CNc3ccc(C(=O)*)cc3)nc2c(=O)[nH]1; γGlu = O=C(O)[C@H](CCC(=O)[*:2])N[*:1]; Dab = NCC[C@H](N)C(=O)O

Legend:
[1] = tested on: S2-013 pancreatic cancer cells; conditions: for incorporation efficiency of siRNA: among 1 to 3 equivalents; for incorporation efficiency of siRNA compared with Dab8: best equivalent versus Dab8 of 1 to 3 equivalents
Protocol: Since it is difficult to distinguish between intracellularly incorporated labels and non-incorporated labels by flow cytometry, the uptake of siRNA into pancreatic cancer cells was observed using a confocal microscope.
The pancreatic cancer cell line 52-013 (Cell Resource Center for Biomedical Research, Institute of Development, Aging and Cancer, Tohoku University, ID: TKG 0709) was seeded in a 4-well chamber slide (Thermo Fisher Scientific Inc.) at a cell density of 2×10^4 cells/well, and scrambled control siRNA (SEQ ID NOs: 3 and 4) labeled with Alexa647 (Thermo Fisher Scientific Inc.), and Dab8, Fol-Dab8A, or Fol-Dab8B in 1 to 3 equivalents to the siRNA were added and then cultured for 48 hours. The concentration of siRNA used was 8.28 μg/mL in 25 μL, and Dab8, Fol-Dab8A, and Fol-Dab8B were diluted 25-fold from the stock solution (Dab8: 119.3 μg/mL, Fol-Dab8A and Fol-Dab8B: 141.2 μg/mL) and used. The amounts corresponding to 1, 2, and 3 equivalents relative to siRNA are 3.9 μL, 7.8 μL, and 11.7 μL, respectively.
The next day, the cells were fixed with 4% paraformaldehyde, sealed with a DAPI-containing encapsulant, and then observed with an all-in-one fluorescence microscope (BZ-X800, Keyence Corporation).
To quantify the uptake, the hybrid cell count function of the Keyence analysis software BZ-X800 Analyzer was used to count cells into which siRNA was taken up in the presence of Dab8, Fol-Dab8A, and Fol-Dab8B. Determination was made by measuring cells with dark staining of at least ⅓ of the cell nuclei and cells with dark clumps in the periphery of the cell nuclei.

[2] = tested on: RNA duplex (siRNA, SEQ ID NO: 1 and 2); conditions: for Tm: 4 μM nucleic acid duplex, 100 mM NaCl, pH 7.0; for ΔTm: versus no peptide (72.3)
Protocol: The melting temperature of the nucleic acid duplex was measured in the presence and absence of the cationic oligopeptide or folic acid-cationic oligopeptide complex synthesized in Example 1.
In this Example, the cationic oligopeptide (Dab8) or the folic acid-cationic oligopeptide (Fol-Dab8A or Fol-Dab8B) was added to an annealed RNA duplex, and the melting temperature (Tm value) was measured. As the RNA duplex, an oligonucleotide pair consisting of the following sequences was used as an siRNA.
After 144 μL of 50 μM nucleic acid solution was prepared and kept at 95° C. for 5 minutes, it was slowly cooled to 4° C. at −0.5° C./min. The solution was added to a mixed solution of pH 7.0 buffer containing 200 mM NaCl and 20 mM Na2HPO4—NaH2PO4 in OTSUKA DISTILLED WATER, and 0.1 mM peptide aqueous solution, and samples were adjusted to a final concentration of 10 mM Na2HPO4—NaH2PO4, 100 mM NaCl, 4 μM nucleic acid duplex, and 0, 4, 8, 12, 16, and 20 μM peptide (0, 1, 2, 3, 4, and 5 equivalents, respectively).
The temperature was increased from 20° C. to 95° C. at 0.5° C./min, and the absorbance at 260 nm was measured to determine a melting curve. The absorbance at 320 nm was measured to remove background noise, and a melting curve was created by subtracting the absorbance at 320 nm from the absorbance at 260 nm, and the Tm value was determined by a median method.

[3] = tested on: pancreatic cancer tissue of mice carrying human pancreatic cancer organoids derived from S2-013 pancreatic cancer cells; conditions: for delivery of SNORA22 siRNA to pancreatic cancer tissue: 5 μg siRNA tail vein, 24 hours
Protocol: Human pancreatic cancer organoids were prepared using 52-013 pancreatic cancer cells by modifying the method described in JP Patent Application Publication No. 2018-110575 A1.
Specifically, the S2-013 pancreatic cancer cells (20×10^4 cells), human mesenchymal stem cells MSC (LONZA, 40×10^4 cells), and human umbilical vein endothelial cells HUVEC (LONZA, 14×10^4 cells) were added to DMEM/Matrigel mixed solution in a 48-well plate (Thermo Fisher Scientific Inc.) and incubated in a CO2 incubator at 37° C. for 30 minutes.
Then, 300 μL/well of DMEM/EGM mixed solution was added thereto and incubated again at 37° C. for 24 hours to prepare one pancreatic cancer organoid in each well.
Subsequently, the skin on the flank of nude mice (6-week-old BALB/cSlc-nu/nu (Pathogen-free female athymic nude mice), Japan SLC, Inc.) was incised, and the pancreatic cancer organoids obtained above were subcutaneously transplanted (2 mice in each group).
Six weeks after transplantation, the chemically-modified SNORA22 siRNA (SEQ ID NOs: 27 and 28, 5 μg) labeled with Alexa-594 was administered with 1, 2, or 3 equivalents of the cationic oligopeptide (Dab8) or the folic acid-cationic oligopeptide complex (Fol-Dab8A or Fol-Dab8B) by tail vein injection. After 24 hours, images were taken with an in vivo imager.
Measuring instrument: Spectrum In Vivo Imaging System (PerkinElmer, Inc., Waltham, Mass.)
Measurement condition: kexc 640 nm, kemi 680 nm
In the same manner as in Example 11, the delivery of chemically-modified SNORA18 siRNA (SEQ ID NOs: 21 and 22) to pancreatic cancer-carrying mice when administered with the folic acid-cationic oligopeptide complex (Fol-Dab8A or Fol-Dab8B) was imaged using an in vivo imager.
In the same manner as in Examples 11 and 13, the delivery of chemically-modified WASF2 siRNA (SEQ ID NOs: 25 and 26) to pancreatic cancer-carrying mice when administered with the folic acid-cationic oligopeptide complex (Fol-Dab8A or Fol-Dab8B) was imaged using an in vivo imager.

[4] = tested on: bovine pancreas-derived RNase A; conditions: 1 or more equivalents; 10 nM siRNA, 37° C., 60 minutes
Protocol: RNA-degrading enzyme resistance of the nucleic acid duplex was tested in the presence of a cationic oligopeptide.
In this Example, peptides were added to the annealed RNA duplex to form a complex, and the rate of RNA degradation was measured.
Subsequently, the mixture was kept at 95° C. for 5 minutes and then slowly cooled to 4° C. at −0.5° C./min.
Thereafter, 15 μL of 100 μg/mL bovine pancreas-derived RNase A (manufactured by F. Hoffmann-La Roche, Ltd.) was added with stirring at 37° C., and fluorescence intensity measurement was started to track changes over time (excitation wavelength: 490 nm; measurement wavelength: 520 nm; and measurement time: 60 minutes).

[5] = chemically-modified SNORA18 siRNA, 1 to 3 equivalents
[6] = chemically-modified WASF2 siRNA, 1 to 3 equivalents
[7] = compared to Dab8, 1 to 3 equivalents

Row | Compound | incorporation efficiency of siRNA compared with Dab8 [1] | Tm ([2]; 1 equivalent peptide) | ΔTm ([2]; 1 equivalent peptide) | Tm ([2]; 2 equivalents peptide) | ΔTm ([2]; 2 equivalents peptide) | Tm ([2]; 3 equivalents peptide) | ΔTm ([2]; 3 equivalents peptide) | Tm ([2]; 4 equivalents peptide) | ΔTm ([2]; 4 equivalents peptide) | Tm ([2]; 5 equivalents peptide) | ΔTm ([2]; 5 equivalents peptide) | delivery of SNORA18 siRNA to pancreatic cancer tissue [3, 5] | delivery of WASF2 siRNA to pancreatic cancer tissue [3, 6] | delivery of SNORA22 siRNA to pancreatic cancer tissue [3, 7] | rate of increase in fluorescence intensity (degradation of RNA duplex by RNase A) [4] | also measured
1 | NCC[C@H](NC(=O)[C@H](CCN)NC(=O)[C@H](CCN)NC(=O)[C@H](CCN)NC(=O)[C@H](CCN)NC(=O)[C@H](CCN)NC(=O)[C@H](CCN)NC(=O)[C@H](CCN)NC(=O)CNC(=O)CNC(=O)CNC(=O)CC[C@H](NC(=O)c1ccc(NCc2cnc3nc(N)[nH]c(=O)c3n2)cc1)C(=O)O)C(N)=O [Fol-Dab8A] ({Pteroyl-γGlu}-GGG[Dab][Dab][Dab][Dab][Dab][Dab][Dab][Dab]-NH2) | higher than Dab8 | 75.2 °C | 2.9 | 76.8 °C | 4.5 | 77.7 °C | 5.4 | 78.7 °C | 6.4 | 79.1 °C | 6.8 | enhanced | enhanced | enhanced | slower | incorporation efficiency of siRNA ([1]; 3 equivalents): highest incorporation efficiency; delivery of SNORA18 siRNA to pancreatic cancer tissue ([3]; 1 equivalent): high concentration; delivery of SNORA18 siRNA to pancreatic cancer tissue ([3]; 3 equivalents): high concentration; delivery of SNORA22 siRNA to pancreatic cancer tissue ([3]; 3 equivalents): high concentration
2 | NCC[C@H](NC(=O)[C@H](CCN)NC(=O)[C@H](CCN)NC(=O)[C@H](CCN)NC(=O)[C@H](CCN)NC(=O)[C@H](CCN)NC(=O)[C@H](CCN)NC(=O)[C@H](CCN)NC(=O)CNC(=O)CNC(=O)CNC(=O)[C@H](CCC(=O)O)NC(=O)c1ccc(NCc2cnc3nc(N)[nH]c(=O)c3n2)cc1)C(N)=O [Fol-Dab8B] (Pteroyl-EGGG[Dab][Dab][Dab][Dab][Dab][Dab][Dab][Dab]-NH2) | higher than Dab8 | 74.5 °C | 2.2 | 76.4 °C | 4.1 | 77.7 °C | 5.4 | 78.5 °C | 6.2 | 79.8 °C | 7.5 | enhanced | enhanced | enhanced | slower | incorporation efficiency of siRNA ([1]; 1 equivalent): highest incorporation efficiency; delivery of WASF2 siRNA to pancreatic cancer tissue ([3]; 1 equivalent): high concentration; delivery of SNORA22 siRNA to pancreatic cancer tissue ([3]; 2 equivalents): high concentration; delivery of WASF2 siRNA to pancreatic cancer tissue ([3]; 3 equivalents): high concentration
